Consider 2 molecules from paper doi:10.1101/2022.09.12.507593 (bioRxiv, 2022).

B1: WT FUS LCRN (Fused in sarcoma N-terminal low-complexity region, aa 1-214) (domain or fragment, human, UniProt P35637 1-214, looked up)
chain: MASNDYTQQATQSYGAYPTQPGQGYSQQSSQPYGQQSYSGYSQSTDTSGYGQSSYSSYGQSQNTGYGTQSTPQGYGSTGGYGSSQSSQSSYGQQSSYPGYGQQPAPSSTSGSYGSSSQSSSYGQPQSGSYSQQPSYGGQQQSYGQQQSYNPPQGYGQQNQYNSSSGGGGGGGGGGNYGQDQSSMSSGGGSGGGYGNQDQSGGGGSGGYGQQDRG

The target of test [1] is T1, OGT-TPR not fused to SUMO (aa 2-474 of ncOGT, SUMO tag removed) (human, UniProt O15294-1 2-474).
T1 sequence (looked up): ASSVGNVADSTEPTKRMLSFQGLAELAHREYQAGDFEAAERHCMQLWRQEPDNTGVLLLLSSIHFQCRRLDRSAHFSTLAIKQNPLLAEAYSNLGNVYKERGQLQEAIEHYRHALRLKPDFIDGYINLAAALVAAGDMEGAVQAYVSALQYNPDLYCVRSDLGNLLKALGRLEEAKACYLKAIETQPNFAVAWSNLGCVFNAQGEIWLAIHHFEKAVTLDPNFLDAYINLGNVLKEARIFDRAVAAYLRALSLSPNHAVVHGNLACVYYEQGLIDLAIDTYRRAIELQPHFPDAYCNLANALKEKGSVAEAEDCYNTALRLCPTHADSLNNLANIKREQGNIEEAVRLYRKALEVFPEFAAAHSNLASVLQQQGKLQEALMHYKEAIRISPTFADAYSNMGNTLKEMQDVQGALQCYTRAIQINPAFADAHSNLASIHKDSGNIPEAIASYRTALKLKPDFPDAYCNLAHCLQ
In words: NMR titration.

Test [2] has as its target B1. In words: NMR titration.

Regarding B1, the binding result in test [1] is recorded as “binds”.

B2: SUMO-fused TPR region of OGT (OGT-TPR, aa 2-474 of ncOGT) (domain or fragment, human, UniProt O15294-1 2-474, looked up)
chain: ASSVGNVADSTEPTKRMLSFQGLAELAHREYQAGDFEAAERHCMQLWRQEPDNTGVLLLLSSIHFQCRRLDRSAHFSTLAIKQNPLLAEAYSNLGNVYKERGQLQEAIEHYRHALRLKPDFIDGYINLAAALVAAGDMEGAVQAYVSALQYNPDLYCVRSDLGNLLKALGRLEEAKACYLKAIETQPNFAVAWSNLGCVFNAQGEIWLAIHHFEKAVTLDPNFLDAYINLGNVLKEARIFDRAVAAYLRALSLSPNHAVVHGNLACVYYEQGLIDLAIDTYRRAIELQPHFPDAYCNLANALKEKGSVAEAEDCYNTALRLCPTHADSLNNLANIKREQGNIEEAVRLYRKALEVFPEFAAAHSNLASVLQQQGKLQEALMHYKEAIRISPTFADAYSNMGNTLKEMQDVQGALQCYTRAIQINPAFADAHSNLASIHKDSGNIPEAIASYRTALKLKPDFPDAYCNLAHCLQ
On to B2, for which, in test [2], the “average peak intensity ratio (plus OGT-TPR/apo)” value amounted to 0.48.
